Laboratory results from US20010041790A1.

Biological target: 35S-labeled hamster PrPsen, glycophosphoinositol-negative form (35S-HaPrPsen) (Syrian golden hamster) (UniProt P04273)
Assay: cell-based or functional assay

Substance: HaP109-141(del113-116) (peptide)
- IC50 of the conversion reaction: 70 µM
